Data on two substances can be found in paper PMC3725402, “Evolution of the key alkaloid enzyme putrescine N-methyltransferase from spermidine synthase” (Frontiers in Plant Science, 2013).

This series has as its system NCCCCN. Briefly: purified protein. Particulars: PMT activity, co-substrate SAM, 20 mM HEPES pH 8.0, 37°C, 2 mM DTT, 1 mM ascorbic acid.

Usually Km stands for the substrate concentration at which the rate is half of its maximum. Turning to “DsPMT (putrescine N-methyltransferase) (Datura stramonium)”, the Km stood at 190 ± 27.67 µM.

Turning to “DsPMT (putrescine N-methyltransferase) (Datura stramonium; H108L)”, the Km came to 3130 ± 732.59 µM.
